This note sets out measurements from the supplement of paper PMC12042874.

± gives the uncertainty stated by the source.

The data set is described as follows: amyloid nucleation score (Sup35N fusion, yeast selection) (log enrichment); library NNK3; higher = more nucleation; inactive = no reads after selection. The procedure, abridged:
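Plasmid inserts were Illumina-sequenced at input and output from psi-negative yeast expressing Sup35N fused to peptides of 20 random codons. The yeast were induced with 100 μM copper sulfate for 24 hours and grown 7 days at 30°C on medium lacking adenine and uracil, and sequences with under 100 input reads were excluded. Nucleation score is the DiMSum log enrichment of output over input reads, centred on the mode score of non-aggregating sequences.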
Take IGPVVGGYRYMCPASDHK: the amyloid nucleation score entry is “inactive”.
Take IHCLLLDRVTNLFLTMQAG: the amyloid nucleation score result was “inactive”.
The entry for IHCSSWFELS is “inactive”; for IHCYCS it is “inactive”.
The entry for IHGKGGLWSHSISIHWNN is “inactive”; for IHLIVWGPSSTLVMVFMEVM it is “inactive”; for IHVDLYN it is “inactive”.
As to IHYGEYNFLGKSRWNHLFFF, the amyloid nucleation score entry is “inactive”.
The figure for IIFFYGGS is 1.9 ± 0.08; for IIGWDDFLLVYNIKLYHNS it is “inactive”.
In the case of IILLSGDSSSRIQEVKVGKK, the amyloid nucleation score entry is “inactive”.
The figure for IINFIVCMMSVQNMCCALFG is 1.39 ± 0.1; for IIPVTSRDYSRKPYPTLERV it is “inactive”.
The entry for IISQIRCFNLPEVPSSTMCL is “inactive”; for IITVSGPLVVLVLSGKGSNN it is 2.42 ± 0.062; for IIVRSTDGLSCRSDSIYECD it is “inactive”.
In turn, IKFDGIIADFSSITVVLECT had an amyloid nucleation score of 0.708 ± 0.25.
Take IKFVPRA: the amyloid nucleation score entry was “inactive”.
Then IKGFRGLLFEVSYHSPELGW, with “inactive”.
Then IKGLAPRFAVGLDNLMSESM, with “inactive”; and IKIMHLSQPMDSMSLLHHG, with “inactive”; and IKLFLIHTTPSFPNTREHDL, with “inactive”.
The entry for IKPCGCSVLDIRT is “inactive”; for IKQGYRAHLWWIVVNRLMFD it is “inactive”; for IKSKNAVCCHFATTMQDSLT it is “inactive”.
ILASKALQQLLQGLTLV displayed an amyloid nucleation score of -0.375 ± 0.98.
The entry for ILCQIDAKDPKPLMTRGLRL is “inactive”; for ILEYAVVNHQVNLVIVSIGH it is 1.65 ± 0.068.
In turn, ILFGGRNGKWLVEPGLSRVL returned an amyloid nucleation score of 0.84 ± 0.23.
Then ILGAILLSMFDSLYLGGEWR, with “inactive”.
ILKVVWYNSPEG registered an amyloid nucleation score of 0.898 ± 0.16.
Then ILMQNSETWSLYPNTA, with “inactive”; and ILNISCFYEWYDHTLNSQSV, with -0.203 ± 0.42; and ILNTCYISHFPFQL, with 2.33 ± 0.087.
Then ILNYLRENCQKVTGRGA, with -0.679 ± 0.96.
As to ILQTLQDVRVRGMDISTASL, the amyloid nucleation score result is “inactive”.
Then ILQVFKIMFKRRGLSFHLGI, with “inactive”; and ILQYRYKGWNRKGYHQQPVI, with “inactive”.
Then ILRFFVCLSHKNVDFICSAR, with “inactive”; and ILRSLVSLWYGCDCW, with 0.661 ± 0.16.
The entry for ILSDMTGDHNSINFDMYSGI is “inactive”; for ILTCFFSQEMIWHFLDTYDY it is 0.522 ± 0.24; for ILTGILDFFFGTSNSRYRNG it is “inactive”.
Take ILTHIVWLFVRLSCMNWNWL: the amyloid nucleation score entry was “inactive”.
The entry for ILTISNTAKKSDW is “inactive”; for ILTLTSRPLLLNLKKPFWVF it is “inactive”; for ILVCCISVETTHDNGPEVVG it is 2.22 ± 0.061.
Turning to ILYNFEDVLWAGSLRIGLNL, the amyloid nucleation score result was “inactive”.
Then ILYRCDCAFFYPLGLLFSRC, with “inactive”.
Then IMCIYEGAVSMYMRVWSNMS, with “inactive”.
Then IMEIMVNTWGNVTVRNSWRL, with 1.23 ± 0.14.
Regarding IMKRFVMFLCFSISIWMFVV, the amyloid nucleation score entry was “inactive”.
The entry for IMLKGS is “inactive”; for IMSVRIGSLGVMSHWSLYSY it is “inactive”.
Then IMTLFTILVTLMTMCLDQFV, with “inactive”; and IMVAMGW, with “inactive”; and IMYPIRSSGLEPLNMCGYQA, with “inactive”.
Then INNAPFNLPLANK, with “inactive”.
Turning to INSDSSQFSYSSLGKVIGMY, the amyloid nucleation score entry was “inactive”.
Then INSVSRGCINHFASVEGPCI, with “inactive”.
The substance INVTLCCTMYD had an amyloid nucleation score of 3.02 ± 0.053.
As to INWLWFLMHIIQI, the amyloid nucleation score result was “inactive”.
The entry for IPCLQVYFTSTPNPSWSHGH is “inactive”; for IPFFIGCHNKCRVYLWVAVG it is “inactive”; for IPGALGNKAICTRASSRRVG it is “inactive”.
The entry for IPGAVISEYYKSYRSSTIPP is “inactive”.
Turning to IPNMDAFLERRPREYNWPVA, the amyloid nucleation score result was “inactive”.
IPSNTKSFSH: the amyloid nucleation score result is “inactive”.
The entry for IPVAIMLS is “inactive”.
Consider IPVFMLLMYRVSMMDSSSKS, for which the amyloid nucleation score result was “inactive”.
Regarding IPYRVFRRTLNLVENMMCRM, the amyloid nucleation score entry is “inactive”.
Then IQCIWDIVGDCWCNSSMGKE, with “inactive”; and IQDHYSDPAN, with “inactive”.
Then IQDLEASRFGSIVIALDNCS, with “inactive”; and IQGLCCRHAEFKNY, with “inactive”; and IREFSNI, with “inactive”.
The entry for IRFSCSSSG is “inactive”; for IRLFAVTAYSIVTYVRFMIG it is “inactive”; for IRNALIYIVISLKFGRRGCY it is 0.107 ± 0.28.
Take IRNFPRDLEFLPFWHSILSL: the amyloid nucleation score entry was “inactive”.
Then IRPWQLCMSKLSHIRRATPY, with “inactive”; and IRRQYIYHSNEYRMMHYSES, with 0.179 ± 0.85; and IRSKCR, with “inactive”.
Turning to IRVRLINSGAL, the amyloid nucleation score entry was “inactive”.
Then ISCGGLNQ, with “inactive”; and ISCTIVLRIVNYNAILVHTY, with “inactive”.
In turn, ISDTYSWCRYLVIGNYAQLG yielded an amyloid nucleation score of 0.463 ± 0.23.
Take ISFNFHSSSTGRA: the amyloid nucleation score was 1.38 ± 0.11.
In turn, ISFSWHF displayed an amyloid nucleation score of 0.789 ± 0.17.
With ISGFKIVSYMNKIVVSTMGL, the amyloid nucleation score entry was “inactive”.
The figure for ISHCMVLRNA is 2.49 ± 0.086; for ISHVNRSNLVFLYFIVVL it is 0.669 ± 0.15; for ISIETGWRNHFTSVPACMLH it is “inactive”.
The entry for ISMSCNYSW is “inactive”.
For ISPYIIVPY, the amyloid nucleation score result was “inactive”.
The entry for ISSNTGFCPAVMLGIPFFRI is “inactive”; for ISSRGSMTRL it is “inactive”; for ISSRSGHVVMSFVCATLRNL it is “inactive”.
The substance ISTLSVSLS showed an amyloid nucleation score of -0.258 ± 0.36.
Then ISWNLRGVVLLTYTICSWCI, with “inactive”; and ISYVYFLGPCV, with 2.13 ± 0.08.
The figure for ITCLNMTWSTAGQWLCVSFT is 1.05 ± 0.17; for ITFLDWKLTTTG it is “inactive”.
Then ITFVYSS, with “inactive”; and ITGHRNVLIEHMVTTP, with “inactive”; and ITISIYRIGRRFFDEYFNSF, with “inactive”.
ITNCFWHWIRAISYANAANS: the amyloid nucleation score entry is “inactive”.
In the case of ITNCLTSACRTSLFMKTQII, the amyloid nucleation score entry was “inactive”.
ITNFIRWNTNV: the amyloid nucleation score result is “inactive”.
Consider ITRLNSMAMCYLIRFLS, for which the amyloid nucleation score result is “inactive”.
Then IVADLHIHCEPRFSSHLTYE, with “inactive”; and IVCGISMIS, with “inactive”.
The figure for IVDFFGFNFCSWLSVFSDSR is 2.48 ± 0.056; for IVDNYVVAALLVVLS it is “inactive”; for IVESQRDASVLRSIPSIRIN it is “inactive”.
The figure for IVFSGNLLVGNGFGVLKRKT is 1.32 ± 0.14; for IVILPM it is “inactive”.
Turning to IVKTPVCSVTRRYPFSDRLL, the amyloid nucleation score entry was “inactive”.
On to IVLYRKVRPCTWAE, for which the amyloid nucleation score entry was “inactive”.
Then IVQVV, with “inactive”; and IVRLFLDVSSVTGHIWARCL, with “inactive”; and IVSLSLVMSTDLC, with 0.834 ± 0.24.
IVTTQHMNGRSDYWITYSSV gave an amyloid nucleation score of -0.447 ± 0.74.
The entry for IVTYLLFDYHNPTRVSYYEC is “inactive”; for IVVVAFKSPSV it is 0.217 ± 0.32.
The entry for IVYLAVFRWGSMSKSRFGFD is “inactive”.
The figure for IVYREVCVFVNM is 1.78 ± 0.063.
Regarding IWCQRYYAIGRRVPKASYDG, the amyloid nucleation score was -0.179 ± 0.78.
Take IWFSLLVPDLPRIIGSLYIS: the amyloid nucleation score result was “inactive”.
The entry for IWIMLHSCELWYADKADLDG is “inactive”.
In turn, IWKGCSACFGKD displayed an amyloid nucleation score of -0.222 ± 1.2.
The entry for IWSMWIYCRNGHH is “inactive”.
